These results are taken from patent US20120039802A1 (published 2012).

T1 sequence (P08581 25-932): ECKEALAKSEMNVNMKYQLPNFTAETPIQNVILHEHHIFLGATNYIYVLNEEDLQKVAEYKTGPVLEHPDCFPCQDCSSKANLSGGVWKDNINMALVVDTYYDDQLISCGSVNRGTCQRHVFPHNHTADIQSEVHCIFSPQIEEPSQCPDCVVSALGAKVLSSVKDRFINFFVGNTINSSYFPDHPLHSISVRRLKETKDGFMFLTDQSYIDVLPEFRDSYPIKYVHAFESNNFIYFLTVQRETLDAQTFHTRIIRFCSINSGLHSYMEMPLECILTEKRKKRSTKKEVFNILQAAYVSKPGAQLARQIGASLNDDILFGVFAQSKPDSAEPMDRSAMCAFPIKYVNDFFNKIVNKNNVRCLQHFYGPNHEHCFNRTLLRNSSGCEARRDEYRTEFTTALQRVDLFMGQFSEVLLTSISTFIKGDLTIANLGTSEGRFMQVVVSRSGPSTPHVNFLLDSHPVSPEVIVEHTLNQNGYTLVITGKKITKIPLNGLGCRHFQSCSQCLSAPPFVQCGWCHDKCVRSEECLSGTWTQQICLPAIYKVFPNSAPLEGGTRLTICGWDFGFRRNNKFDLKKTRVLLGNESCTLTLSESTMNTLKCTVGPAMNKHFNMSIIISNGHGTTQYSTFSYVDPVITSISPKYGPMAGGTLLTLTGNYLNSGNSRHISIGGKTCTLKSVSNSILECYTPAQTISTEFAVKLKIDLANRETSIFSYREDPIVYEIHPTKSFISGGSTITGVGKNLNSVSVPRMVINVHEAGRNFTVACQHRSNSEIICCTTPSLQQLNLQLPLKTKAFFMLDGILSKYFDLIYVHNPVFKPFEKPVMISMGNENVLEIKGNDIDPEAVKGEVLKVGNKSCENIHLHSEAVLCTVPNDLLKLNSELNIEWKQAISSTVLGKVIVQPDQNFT

One test concerns the target T1, cMet-Fc fusion protein (extracellular domain of the cMet receptor expressed as an Fc-fusion protein) (human, UniProt P08581 25-932).
T1 construct: extracellular domain; also called soluble cMet-Fc-fusion protein; soluble cMet receptor; not shown: Fc part
Kind of test: phage ELISA, cMet-Fc vs TRAIL-Fc. The procedure, abridged: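 Plates coated overnight at 4 C with 0.5 μg/mL cMet-Fc, or TRAIL-Fc as background, were blocked with 3% BSA in PBST. Peptide-displaying phage were bound 2 h at room temperature. Bound phage were detected with HRP-conjugated anti-M13 antibody.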
GDDFHCEFIDDYQSEICYFNDP [333-C03 peptide-displaying phage (SEQ ID NO: 391)]: the “Protein ELISA (fold over background)” value worked out at 12.4 fold.

In the case of GDYSECFFEPDSFEVKCYDRDP [545-H12 peptide-displaying phage (SEQ ID NO: 399)], the “Protein ELISA (fold over background)” value was 11.3 fold.

For GSELFCFYHHQGYEGCDVLAP [465-B07 peptide-displaying phage (SEQ ID NO: 385)], the “Protein ELISA (fold over background)” value is 4.8 fold.

As to GDASMCYDGLALRWDQCWPHDP [531-E11 peptide-displaying phage (SEQ ID NO: 404)], the “Protein ELISA (fold over background)” value stood at 3.4 fold.

For the molecule GSFTACNKTSTTRQPCNPYAP [451-B12 peptide-displaying phage (SEQ ID NO: 384)], the “Protein ELISA (fold over background)” value is 3.1 fold.

As to GDYRMCQISDMWGNYECSSDDP [548-G05 peptide-displaying phage (SEQ ID NO: 400)], the “Protein ELISA (fold over background)” value was found to be 6.1 fold.

As to AGNWICNLSEMRCYPKGT [456-E04 peptide-displaying phage (SEQ ID NO: 013)], the “Protein ELISA (fold over background)” value was 3.9 fold.

Turning to GDYDYCDFDLETYIPECHSYDP [546-G02 peptide-displaying phage (SEQ ID NO: 390)], the “Protein ELISA (fold over background)” value amounted to 16.1 fold.

Regarding AQYDTWVFQFIHEVPGELVAMQ (also called linear isolate 94-E08) [94-E08 peptide-displaying phage (SEQ ID NO: 454)], the “Protein ELISA (fold over background)” value worked out at 8.9 fold.

As for GDPDECQLNRETFEVWCPWHDP [547-C09 peptide-displaying phage (SEQ ID NO: 401)], the “Protein ELISA (fold over background)” value amounted to 4.3 fold.

For the molecule GDSYNCSWDSKTFEVTCLYADP [546-B01 peptide-displaying phage (SEQ ID NO: 393)], the “Protein ELISA (fold over background)” value came to 8.4 fold.

Regarding GDASWCDENSPAAWFYCELWDP [551-D02 peptide-displaying phage (SEQ ID NO: 394)], the “Protein ELISA (fold over background)” value was 13.4 fold.

In the case of GDLLVCKFDDKFWTETCEWADP [549-G05 peptide-displaying phage (SEQ ID NO: 392)], the “Protein ELISA (fold over background)” value came out at 23.7 fold.

For the molecule AQRPEAHYKLAMSYPIIPRTKT [96-H12 peptide-displaying phage (SEQ ID NO: 452)], the “Protein ELISA (fold over background)” value is 35.3 fold.

A further test deals with T2, human cMet expressed on 3T3 cells (human, UniProt P08581 25-1390).
T2 construct: whole, on cells; cells fixed with glutaraldehyde; also called cell surface-expressed human cMet; 3T3 cells that over-express human cMet
T2 sequence (P08581 25-1390): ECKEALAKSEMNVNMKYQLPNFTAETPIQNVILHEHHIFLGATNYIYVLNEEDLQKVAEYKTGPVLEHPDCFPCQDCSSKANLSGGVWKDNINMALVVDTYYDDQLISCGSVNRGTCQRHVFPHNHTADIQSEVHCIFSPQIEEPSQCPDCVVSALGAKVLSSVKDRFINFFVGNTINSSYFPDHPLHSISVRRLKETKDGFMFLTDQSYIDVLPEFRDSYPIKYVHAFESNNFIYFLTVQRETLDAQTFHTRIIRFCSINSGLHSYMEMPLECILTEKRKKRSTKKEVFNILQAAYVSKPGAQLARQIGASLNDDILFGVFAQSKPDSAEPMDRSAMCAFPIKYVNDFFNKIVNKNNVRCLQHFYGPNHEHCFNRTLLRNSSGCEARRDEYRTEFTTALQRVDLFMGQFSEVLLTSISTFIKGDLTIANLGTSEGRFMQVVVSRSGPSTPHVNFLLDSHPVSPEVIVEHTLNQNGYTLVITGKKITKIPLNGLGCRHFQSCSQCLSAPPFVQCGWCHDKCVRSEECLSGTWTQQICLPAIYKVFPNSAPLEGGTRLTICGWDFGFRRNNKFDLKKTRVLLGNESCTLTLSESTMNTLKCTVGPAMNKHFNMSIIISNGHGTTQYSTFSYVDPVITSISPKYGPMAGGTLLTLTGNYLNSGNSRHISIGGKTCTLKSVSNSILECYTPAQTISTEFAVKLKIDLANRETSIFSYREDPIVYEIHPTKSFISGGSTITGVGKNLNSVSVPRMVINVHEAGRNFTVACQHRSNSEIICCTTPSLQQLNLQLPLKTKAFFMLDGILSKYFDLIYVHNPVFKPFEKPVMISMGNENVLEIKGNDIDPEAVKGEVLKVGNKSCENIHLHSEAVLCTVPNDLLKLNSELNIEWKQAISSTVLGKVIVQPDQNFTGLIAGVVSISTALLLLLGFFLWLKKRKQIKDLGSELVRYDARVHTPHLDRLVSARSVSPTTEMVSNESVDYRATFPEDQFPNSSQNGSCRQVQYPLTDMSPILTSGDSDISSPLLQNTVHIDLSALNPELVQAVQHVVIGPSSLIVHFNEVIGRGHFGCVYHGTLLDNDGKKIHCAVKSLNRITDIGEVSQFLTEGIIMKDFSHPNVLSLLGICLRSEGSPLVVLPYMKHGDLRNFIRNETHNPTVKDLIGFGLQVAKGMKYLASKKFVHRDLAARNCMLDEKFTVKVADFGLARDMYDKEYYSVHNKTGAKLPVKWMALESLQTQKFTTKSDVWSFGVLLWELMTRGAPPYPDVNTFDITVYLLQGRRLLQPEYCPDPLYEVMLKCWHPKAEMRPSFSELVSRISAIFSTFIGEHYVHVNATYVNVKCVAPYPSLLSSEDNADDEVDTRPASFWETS
The test is described as follows: whole cell phage ELISA, 3T3 human cMet vs 3T3. The procedure, abridged: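 3T3 cells over-expressing human cMet, compared against parental 3T3, seeded at 10⁵ per well and fixed with 0.1% glutaraldehyde for 12 min at 37 C. Blocked peptide-displaying phage bound for 1 h at room temperature. After PBST washes, bound phage was detected with HRP-conjugated anti-M13 antibody.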
Regarding GDDFHCEFIDDYQSEICYFNDP [333-C03 peptide-displaying phage (SEQ ID NO: 391)], the “WC ELISA (fold over background)” value was 1.37 fold.

For the molecule GDYSECFFEPDSFEVKCYDRDP [545-H12 peptide-displaying phage (SEQ ID NO: 399)], the “WC ELISA (fold over background)” value was 1.3 fold.

For the molecule GSELFCFYHHQGYEGCDVLAP [465-B07 peptide-displaying phage (SEQ ID NO: 385)], the “WC ELISA (fold over background)” value is 1.27 fold.

Turning to GDASMCYDGLALRWDQCWPHDP [531-E11 peptide-displaying phage (SEQ ID NO: 404)], the “WC ELISA (fold over background)” value was determined as 1.3 fold.

Consider GSFTACNKTSTTRQPCNPYAP [451-B12 peptide-displaying phage (SEQ ID NO: 384)], for which the “WC ELISA (fold over background)” value was determined as 1.37 fold.

Regarding GDYRMCQISDMWGNYECSSDDP [548-G05 peptide-displaying phage (SEQ ID NO: 400)], the “WC ELISA (fold over background)” value was determined as 1.3 fold.

Regarding AGNWICNLSEMRCYPKGT [456-E04 peptide-displaying phage (SEQ ID NO: 013)], the “WC ELISA (fold over background)” value was determined as 1.4 fold.

Consider GDYDYCDFDLETYIPECHSYDP [546-G02 peptide-displaying phage (SEQ ID NO: 390)], for which the “WC ELISA (fold over background)” value was determined as 1.27 fold.

For the molecule AQYDTWVFQFIHEVPGELVAMQ (also called linear isolate 94-E08) [94-E08 peptide-displaying phage (SEQ ID NO: 454)], the “WC ELISA (fold over background)” value was found to be 1.23 fold.

For GDPDECQLNRETFEVWCPWHDP [547-C09 peptide-displaying phage (SEQ ID NO: 401)], the “WC ELISA (fold over background)” value came out at 1.23 fold.

Consider GDSYNCSWDSKTFEVTCLYADP [546-B01 peptide-displaying phage (SEQ ID NO: 393)], for which the “WC ELISA (fold over background)” value turned out to be 1.2 fold.

As for GDASWCDENSPAAWFYCELWDP [551-D02 peptide-displaying phage (SEQ ID NO: 394)], the “WC ELISA (fold over background)” value worked out at 1.37 fold.

For GDLLVCKFDDKFWTETCEWADP [549-G05 peptide-displaying phage (SEQ ID NO: 392)], the “WC ELISA (fold over background)” value worked out at 1.47 fold.

Consider AQRPEAHYKLAMSYPIIPRTKT [96-H12 peptide-displaying phage (SEQ ID NO: 452)], for which the “WC ELISA (fold over background)” value stood at 1.37 fold.

The next test addresses T1, cMet-Fc fusion protein (extracellular …). Kind of test: phage ELISA on cMet-Fc, competitor HGF 100 ng/mL. An outline of the steps: (§1)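 Plates coated with 0.5 μg/mL cMet-Fc, with TRAIL-Fc as background, then blocked with 3% BSA. Bound phage detected with HRP anti-M13 antibody.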
As for GDDFHCEFIDDYQSEICYFNDP [333-C03 peptide-displaying phage (SEQ ID NO: 391)], the “% of binding in the absence of HGF” value was found to be 52%.

Turning to GDYSECFFEPDSFEVKCYDRDP [545-H12 peptide-displaying phage (SEQ ID NO: 399)], the “% of binding in the absence of HGF” value was 74%.

As to GSELFCFYHHQGYEGCDVLAP [465-B07 peptide-displaying phage (SEQ ID NO: 385)], the “% of binding in the absence of HGF” value came to 111%.

In the case of GDASMCYDGLALRWDQCWPHDP [531-E11 peptide-displaying phage (SEQ ID NO: 404)], the “% of binding in the absence of HGF” value stood at 61%.

As to GSFTACNKTSTTRQPCNPYAP [451-B12 peptide-displaying phage (SEQ ID NO: 384)], the “% of binding in the absence of HGF” value amounted to 61%.

For GDYRMCQISDMWGNYECSSDDP [548-G05 peptide-displaying phage (SEQ ID NO: 400)], the “% of binding in the absence of HGF” value amounted to 110%.

As for AGNWICNLSEMRCYPKGT [456-E04 peptide-displaying phage (SEQ ID NO: 013)], the “% of binding in the absence of HGF” value turned out to be 82%.

In the case of GDYDYCDFDLETYIPECHSYDP [546-G02 peptide-displaying phage (SEQ ID NO: 390)], the “% of binding in the absence of HGF” value came to 32%.

Consider AQYDTWVFQFIHEVPGELVAMQ (also called linear isolate 94-E08) [94-E08 peptide-displaying phage (SEQ ID NO: 454)], for which the “% of binding in the absence of HGF” value came to 102%.

As for GDPDECQLNRETFEVWCPWHDP [547-C09 peptide-displaying phage (SEQ ID NO: 401)], the “% of binding in the absence of HGF” value came out at 50%.

As to GDSYNCSWDSKTFEVTCLYADP [546-B01 peptide-displaying phage (SEQ ID NO: 393)], the “% of binding in the absence of HGF” value was 95%.

For GDASWCDENSPAAWFYCELWDP [551-D02 peptide-displaying phage (SEQ ID NO: 394)], the “% of binding in the absence of HGF” value stood at 91%.

Turning to GDLLVCKFDDKFWTETCEWADP [549-G05 peptide-displaying phage (SEQ ID NO: 392)], the “% of binding in the absence of HGF” value was 28%.

On to AQRPEAHYKLAMSYPIIPRTKT [96-H12 peptide-displaying phage (SEQ ID NO: 452)], for which the “% of binding in the absence of HGF” value came to 88%.

For a further test the target is unchanged. Kind of test: phage ELISA on cMet-Fc, competitor HGF 500 ng/mL. The procedure, abridged: as §1
With GDDFHCEFIDDYQSEICYFNDP [333-C03 peptide-displaying phage (SEQ ID NO: 391)], the “% of binding in the absence of HGF” value was determined as 43%.

As for GDYSECFFEPDSFEVKCYDRDP [545-H12 peptide-displaying phage (SEQ ID NO: 399)], the “% of binding in the absence of HGF” value worked out at 60%.

In the case of GSELFCFYHHQGYEGCDVLAP [465-B07 peptide-displaying phage (SEQ ID NO: 385)], the “% of binding in the absence of HGF” value was 79%.

Regarding GDASMCYDGLALRWDQCWPHDP [531-E11 peptide-displaying phage (SEQ ID NO: 404)], the “% of binding in the absence of HGF” value is 33%.

For the molecule GSFTACNKTSTTRQPCNPYAP [451-B12 peptide-displaying phage (SEQ ID NO: 384)], the “% of binding in the absence of HGF” value was found to be 27%.

GDYRMCQISDMWGNYECSSDDP [548-G05 peptide-displaying phage (SEQ ID NO: 400)]: the “% of binding in the absence of HGF” value amounted to 47%.

For the molecule AGNWICNLSEMRCYPKGT [456-E04 peptide-displaying phage (SEQ ID NO: 013)], the “% of binding in the absence of HGF” value stood at 81%.

Turning to GDYDYCDFDLETYIPECHSYDP [546-G02 peptide-displaying phage (SEQ ID NO: 390)], the “% of binding in the absence of HGF” value turned out to be 19%.

Take AQYDTWVFQFIHEVPGELVAMQ (also called linear isolate 94-E08) [94-E08 peptide-displaying phage (SEQ ID NO: 454)]: the “% of binding in the absence of HGF” value was determined as 74%.

Regarding GDPDECQLNRETFEVWCPWHDP [547-C09 peptide-displaying phage (SEQ ID NO: 401)], the “% of binding in the absence of HGF” value stood at 32%.

Regarding GDSYNCSWDSKTFEVTCLYADP [546-B01 peptide-displaying phage (SEQ ID NO: 393)], the “% of binding in the absence of HGF” value amounted to 77%.

With GDASWCDENSPAAWFYCELWDP [551-D02 peptide-displaying phage (SEQ ID NO: 394)], the “% of binding in the absence of HGF” value is 70%.

Turning to GDLLVCKFDDKFWTETCEWADP [549-G05 peptide-displaying phage (SEQ ID NO: 392)], the “% of binding in the absence of HGF” value was 21%.

As to AQRPEAHYKLAMSYPIIPRTKT [96-H12 peptide-displaying phage (SEQ ID NO: 452)], the “% of binding in the absence of HGF” value was 64%.
